Drawing on PMC7545097, “Mapping the native interaction surfaces of PREP1 with PBX1 by cross-linking mass-spectrometry and mutagenesis” (Scientific Reports, 2020), this text covers binding result and Kd for two molecules.

What all share (conditions): both partners purified
Test [1] concerns the target T1, PREP1_(1-344) (UniProt P55347 1-344).
T1 construct: PREP1 (PKNOX1), residues 1-344, lacking the C-terminal region; Second cassette of the di-cistronic vector pGEX-6P-2RBS; also called PKNOX1; C-terminal truncated PREP1; source: E. coli, co-expressed with PBX1(1-308), purified as a complex (cation exchange, SEC on Superose 6)
T1 sequence (looked up): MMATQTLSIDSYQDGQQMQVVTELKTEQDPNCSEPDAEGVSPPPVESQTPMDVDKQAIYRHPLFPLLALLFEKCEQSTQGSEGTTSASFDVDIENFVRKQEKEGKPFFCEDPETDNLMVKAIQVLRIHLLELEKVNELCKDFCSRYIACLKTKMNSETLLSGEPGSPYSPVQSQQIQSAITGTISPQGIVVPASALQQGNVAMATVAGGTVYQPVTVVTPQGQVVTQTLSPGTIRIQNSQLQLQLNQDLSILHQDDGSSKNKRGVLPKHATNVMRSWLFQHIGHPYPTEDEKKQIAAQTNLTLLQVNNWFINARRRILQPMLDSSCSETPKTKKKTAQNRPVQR
As to the kind of experiment: cross-linking; purified complex at 1 mg/ml in 50 mM borate-buffered saline, 1 mM BS^3, 1 h at room temperature; SDS-PAGE, in-gel Glu-C and trypsin digestion, nLC-ESI-MS/MS, pLink 2; two biological replicates.

For test [2], the target named is T2, full-length MEIS1 (MEIS1_(1-390)) in the purified MEIS1-PBX1 complex (UniProt O00470 1-390).
T2 construct: MEIS1, full length, residues 1-390; source: E. coli, purified as a complex with PBX1(1-308)
T2 sequence (looked up): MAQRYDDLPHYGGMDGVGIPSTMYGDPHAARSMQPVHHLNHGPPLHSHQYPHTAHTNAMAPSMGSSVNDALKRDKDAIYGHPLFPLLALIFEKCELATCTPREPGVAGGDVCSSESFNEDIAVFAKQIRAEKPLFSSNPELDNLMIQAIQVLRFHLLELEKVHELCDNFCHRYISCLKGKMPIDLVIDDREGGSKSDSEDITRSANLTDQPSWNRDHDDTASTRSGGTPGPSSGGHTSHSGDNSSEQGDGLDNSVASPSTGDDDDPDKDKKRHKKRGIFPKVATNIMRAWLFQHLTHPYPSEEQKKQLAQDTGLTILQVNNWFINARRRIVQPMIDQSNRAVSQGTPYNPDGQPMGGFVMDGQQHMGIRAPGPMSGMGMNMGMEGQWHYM
Described as above.

The target of test [3] is T3, PBX1_(1-430), wild-type recombinant (human, UniProt P40424 1-430).
T3 construct: also called wild-type PBX1; purified recombinant human PBX1; source: E. coli, purified
T3 sequence (looked up): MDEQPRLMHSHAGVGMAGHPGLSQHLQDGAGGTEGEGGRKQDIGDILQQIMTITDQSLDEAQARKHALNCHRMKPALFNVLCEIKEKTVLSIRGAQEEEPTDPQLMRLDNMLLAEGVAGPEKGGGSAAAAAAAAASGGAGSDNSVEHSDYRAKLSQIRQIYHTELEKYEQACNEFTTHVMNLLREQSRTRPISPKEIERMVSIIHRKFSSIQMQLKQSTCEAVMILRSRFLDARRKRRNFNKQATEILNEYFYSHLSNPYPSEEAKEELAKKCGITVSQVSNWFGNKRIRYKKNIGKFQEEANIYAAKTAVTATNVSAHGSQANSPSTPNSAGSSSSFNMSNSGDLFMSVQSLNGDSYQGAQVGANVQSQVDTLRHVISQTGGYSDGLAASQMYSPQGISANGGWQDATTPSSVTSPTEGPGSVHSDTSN
The test can be described thus: ELISA; PBX1 wild-type coated at 0.1 µM in 100 mM Tris–HCl pH 7.5; GST-fused proteins at 0.23 nM to 0.5 µM, 1 h at 37 °C; anti-GST detection; GST signal subtracted; one-site binding model. (ELISA stands for enzyme-linked immunosorbent assay.)

B1: PBX1_(1-308) (domain or fragment, human, UniProt P40424 1-308, looked up)
chain: MDEQPRLMHSHAGVGMAGHPGLSQHLQDGAGGTEGEGGRKQDIGDILQQIMTITDQSLDEAQARKHALNCHRMKPALFNVLCEIKEKTVLSIRGAQEEEPTDPQLMRLDNMLLAEGVAGPEKGGGSAAAAAAAAASGGAGSDNSVEHSDYRAKLSQIRQIYHTELEKYEQACNEFTTHVMNLLREQSRTRPISPKEIERMVSIIHRKFSSIQMQLKQSTCEAVMILRSRFLDARRKRRNFNKQATEILNEYFYSHLSNPYPSEEAKEELAKKCGITVSQVSNWFGNKRIRYKKNIGKFQEEANIYAAK
notes: PBX1, residues 1-308, lacking the C-terminal region; First cassette of the di-cistronic vector pGEX-6P-2RBS, with PREP1 in the second; also called C-terminal truncated PBX1; source: E. coli, purified as a complex with PREP1(1-344) or with MEIS1 (ion exchange, SEC on Superose 6)
With B1, the binding result in test [1] and in test [2] was “binds” each time.

B2: GST-fused wild-type MEIS1 (natural protein, UniProt O00470 1-390, looked up)
chain: MAQRYDDLPHYGGMDGVGIPSTMYGDPHAARSMQPVHHLNHGPPLHSHQYPHTAHTNAMAPSMGSSVNDALKRDKDAIYGHPLFPLLALIFEKCELATCTPREPGVAGGDVCSSESFNEDIAVFAKQIRAEKPLFSSNPELDNLMIQAIQVLRFHLLELEKVHELCDNFCHRYISCLKGKMPIDLVIDDREGGSKSDSEDITRSANLTDQPSWNRDHDDTASTRSGGTPGPSSGGHTSHSGDNSSEQGDGLDNSVASPSTGDDDDPDKDKKRHKKRGIFPKVATNIMRAWLFQHLTHPYPSEEQKKQLAQDTGLTILQVNNWFINARRRIVQPMIDQSNRAVSQGTPYNPDGQPMGGFVMDGQQHMGIRAPGPMSGMGMNMGMEGQWHYM
notes: MEIS1, full length, residues 1-390; Detected through GST in the ELISA; source: E. coli, purified
B2: the Kd (as a rule, the free concentration of one partner at which half of the binding sites on the other are occupied at equilibrium, for simple one-to-one binding) in test [3] was determined as 0.08 ± 0.017 µM.
